From publication doi:10.1101/2025.04.28.650926 (bioRxiv, 2025)
Where two headings read alike, the source gives them in different places.

Legend:
[1] = target: T1, HSF1-WT monomer (SEC peak 3) (human, UniProt Q00613 1-529); experiment: fluorescence polarization
native gel or EMSA = target: the molecule itself; experiment: native gel or EMSA
HSF1-DBD = HSF1-DBD (human, UniProt Q00613 1-123); experiment: fluorescence polarization
HSF1-ΔLZ1-3 (HSF1-CM) = HSF1-ΔLZ1-3 (HSF1-CM) (human, UniProt Q00613 1-129+204-529, internal_change); experiment: fluorescence polarization
HSF1-ΔLZ4-TAD [2] = target: T2, HSF1-ΔLZ4-TAD (human, UniProt Q00613 1-383); experiment: fluorescence polarization
HSF1-ΔTAD = HSF1-ΔTAD (human, UniProt Q00613 1-409); experiment: fluorescence polarization
[3] = target: HSF1-WT trimer/oligomer (SEC peak 1) (human, UniProt Q00613 1-529); experiment: fluorescence polarization
Sequence of HSF1-WT trimer/oligomer (SEC peak 1) (Q00613 whole entry): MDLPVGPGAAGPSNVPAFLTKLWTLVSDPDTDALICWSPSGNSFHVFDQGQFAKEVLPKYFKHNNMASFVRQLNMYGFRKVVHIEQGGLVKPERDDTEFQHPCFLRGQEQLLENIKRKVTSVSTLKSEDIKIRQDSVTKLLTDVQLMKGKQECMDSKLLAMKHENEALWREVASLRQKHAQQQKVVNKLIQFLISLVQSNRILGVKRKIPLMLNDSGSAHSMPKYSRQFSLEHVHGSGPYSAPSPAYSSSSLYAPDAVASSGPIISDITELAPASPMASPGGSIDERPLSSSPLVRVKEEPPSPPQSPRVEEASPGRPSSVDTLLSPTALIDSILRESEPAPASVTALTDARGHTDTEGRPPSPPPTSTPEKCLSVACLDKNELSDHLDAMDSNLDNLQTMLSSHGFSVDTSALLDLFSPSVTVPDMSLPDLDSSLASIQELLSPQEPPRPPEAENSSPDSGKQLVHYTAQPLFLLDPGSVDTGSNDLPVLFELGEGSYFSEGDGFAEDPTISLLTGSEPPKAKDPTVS

[4] = target: T1, HSF1-WT monomer (SEC peak 3); experiment: fluorescence polarization; remark: listed apart in the source
HSF1-LZ4m (HSF1-CT) = HSF1-LZ4m (HSF1-CT) (human, UniProt Q00613 1-529, M391K;L395P;L398R); experiment: fluorescence polarization
HSF1-ΔLZ4-TAD [5] = target: T2, HSF1-ΔLZ4-TAD; experiment: fluorescence polarization; remark: listed apart in the source

B1: mHSE (mutant HSE) (dsDNA)
DNA 1: CCTGGCGTAGTCCCCGCCTGGC
DNA 2: GCCAGGCGGGGACTACGCCAGG
Kd [1]: 84.8 ± 14.2 nM

B2: HSF1-LZ4mutant (LZ4m), constitutively trimeric/ oligomeric (CT) (natural protein, human, UniProt Q00613 1-529, looked up)
chain: MDLPVGPGAAGPSNVPAFLTKLWTLVSDPDTDALICWSPSGNSFHVFDQGQFAKEVLPKYFKHNNMASFVRQLNMYGFRKVVHIEQGGLVKPERDDTEFQHPCFLRGQEQLLENIKRKVTSVSTLKSEDIKIRQDSVTKLLTDVQLMKGKQECMDSKLLAMKHENEALWREVASLRQKHAQQQKVVNKLIQFLISLVQSNRILGVKRKIPLMLNDSGSAHSMPKYSRQFSLEHVHGSGPYSAPSPAYSSSSLYAPDAVASSGPIISDITELAPASPMASPGGSIDERPLSSSPLVRVKEEPPSPPQSPRVEEASPGRPSSVDTLLSPTALIDSILRESEPAPASVTALTDARGHTDTEGRPPSPPPTSTPEKCLSVACLDKNELSDHLDAKDSNPDNRQTMLSSHGFSVDTSALLDLFSPSVTVPDMSLPDLDSSLASIQELLSPQEPPRPPEAENSSPDSGKQLVHYTAQPLFLLDPGSVDTGSNDLPVLFELGEGSYFSEGDGFAEDPTISLLTGSEPPKAKDPTVS
binding result (native gel or EMSA): binds

B3: HSE (canonical three-site) (dsDNA)
DNA 1: CCTGGAATATTCCCGAACTGGC
DNA 2: GCCAGTTCGGGAATATTCCAGG
Kd (HSF1-DBD): 85.3 ± 6.29 nM | Kd (HSF1-ΔLZ1-3 (HSF1-CM)): 6.57 ± 1.39 nM | Kd [1]: 7.98 ± 1.43 nM | Kd (HSF1-ΔLZ4-TAD [2]): 12.9 ± 0.335 nM | Kd (HSF1-ΔTAD): 60.3 ± 1.13 nM | Kd [3]: 17.1 ± 6.28 nM | Kd [4]: 56.7 ± 4.62 nM | Kd (HSF1-LZ4m (HSF1-CT)): 25.1 ± 8.09 nM | Kd (HSF1-ΔLZ4-TAD [5]): 22.6 ± 1.36 nM
